According to patent publication US20240150417A1 (CELLEMEDY, published 2024):

B1: Ein-gp100-huHF (other)
chain: MHHHHHHEFTTASTSQVRQNYHQDSEAAINRQINLELYASYVYLSMSYYFDRDDVALKNFAKYFLHQSHEEREHAEKLMKLQNQRGGRIFLQDIKKPDCDDWESGLNAMECALHLEKNVNQSLLELHKLATDKNDPHLCDFIETHYLNEQVKAIKELGDHVTNLRKMGAPESGLAEYLFDKHKVPRNQDWLTLGDSDNES
notes: Self-assembled 24-mer; built from the site; also called gp100-huHF, TSA insertion site Ein (the middle of E helix)
B2: Din-gp100-huHF (other)
chain: MHHHHHHEFTTASTSQVRQNYHQDSEAAINRQINLELYASYVYLSMSYYFDRDDVALKNFAKYFLHQSHEEREHAEKLMKLQNQRGGRIFLQDIKKPDCDDWESGLNAMECALHLEKNVNQSLLELHKLATDKNDPHLCDFIETHYLNEQVKAIKELGDHVTNLRKVPRNQDWLKMGAPESGLAEYLFDKHTLGDSDNES
modifications: One monomer given; 24 monomers self-assemble. His tag carried RED-tris-NTA dye in MST.
notes: Self-assembled 24-mer; built from the site; also called gp100-huHF, TSA insertion site Din (the middle of D helix)

Biological target: T1, human transferrin receptor (human, UniProt P02786 89-760, limits assumed)
T1 construct: also called TfR Human; transferrin receptor 1
T1 sequence (P02786 89-760 limits assumed): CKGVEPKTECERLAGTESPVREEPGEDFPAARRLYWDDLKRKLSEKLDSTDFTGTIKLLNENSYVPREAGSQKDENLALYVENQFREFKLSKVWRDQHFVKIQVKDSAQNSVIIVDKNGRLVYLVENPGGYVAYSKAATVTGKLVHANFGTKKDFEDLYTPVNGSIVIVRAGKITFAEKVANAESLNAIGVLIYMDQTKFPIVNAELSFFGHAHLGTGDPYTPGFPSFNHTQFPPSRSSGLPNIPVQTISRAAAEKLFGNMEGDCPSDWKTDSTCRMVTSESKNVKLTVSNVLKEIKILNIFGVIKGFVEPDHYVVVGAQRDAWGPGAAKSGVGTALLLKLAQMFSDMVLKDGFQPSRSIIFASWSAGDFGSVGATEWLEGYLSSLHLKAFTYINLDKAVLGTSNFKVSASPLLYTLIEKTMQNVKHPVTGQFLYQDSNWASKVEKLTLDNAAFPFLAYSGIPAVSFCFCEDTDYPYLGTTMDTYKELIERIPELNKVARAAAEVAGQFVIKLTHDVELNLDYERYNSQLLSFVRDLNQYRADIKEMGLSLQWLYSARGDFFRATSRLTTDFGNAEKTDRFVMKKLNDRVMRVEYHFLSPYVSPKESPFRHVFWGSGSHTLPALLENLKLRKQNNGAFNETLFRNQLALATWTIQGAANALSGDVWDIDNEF
Experiment: MST (Monolith NT.115), dye-labelled protein, receptor titrated
Procedure: First, 100 μl of dye that specifically binds to a hexa-His tag (RED-tris-NTA 2nd Generation Dye) was prepared at a concentration of 50 nM, along with 100 μl of the produced protein at a concentration of 200 nM, followed by mixing the same and incubating at room temperature for 30 minutes. The incubated product was centrifuged at 13000 rpm for 10 minutes at 4° C. by a centrifuge, thus to separate the supernatant and obtain a dye-labeled protein.
Then, 25 μl of 9.65 μM transferrin receptor was added to the 1st PCR tube; 10 μl of PBS-T (PBS+0.5% tween 20) buffer was added to 2nd to 16th PCR tubes; 10 μl of transferrin in the 1st PCR tube was transferred to the 2nd PCR tube; and 10 μl was again transferred from the 2nd PCR tube to the 3rd PCR tube. Likewise, this procedure was continued up to the 16th tube thus to perform ½ dilution in a sequential order so that each of the 2nd to 16th PCR tubes becomes 20 μl.
Thereafter, 10 μl of the dye-labeled protein was added to each PCR tube, and the reaction was performed at room temperature for 1 hour.

Binder	Kd [nM]
B1	6.28
B2	29.3
